Data on one molecule can be found in patent publication US20230295347A1 (published 2023).

Assay [1] deals with T1, cysteine-rich domain (CRD) of human Fzd4 (UniProt Q9ULV1 40-161).
T1 chain: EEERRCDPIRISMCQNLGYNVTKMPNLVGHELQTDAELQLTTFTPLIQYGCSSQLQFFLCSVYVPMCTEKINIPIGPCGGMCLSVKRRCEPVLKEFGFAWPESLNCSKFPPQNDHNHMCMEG
The assay can be described thus: BLI.

In assay [2] the target is T1, cysteine-rich domain (CRD) of human Fzd4. The assay can be described thus: SPR; apparent KD, average of four capture concentrations. In general terms: In SPR one partner is held on a chip, and binding of the other changes the refractive index at the surface.

B1: 4SD1-03_LALAPG (bispecific antibody)
heavy: EVQLVESGGGLVKPGGSLRLSCAASGFTFTNYAMSWVRQAPGKGLEWVSAISGSGGSTYYADSVKGRFTISRDDSKNTLYLQMNSLKTEDTAVYYCARATGFGTVVFDYWGQGTLVTVSSASTKGPSVFPLAPSSKSTSGGTAALGCLVKDYFPEPVTVSWNSGALTSGVHTFPAVLQSSGLYSLSSVVTVPSSSLGTQTYICNVNHKPSNTKVDKKVEPKSCDKTHTCPPCPAPEAAGGPSVFLFPPKPKDTLMISRTPEVTCVVVDVSHEDPEVKFNWYVDGVEVHNAKTKPREEQYNSTYRVVSVLTVLHQDWLNGKEYKCKVSNKALGAPIEKTISKAKGQPREPQVYTLPPSREEMTKNQVSLTCLVKGFYPSDIAVEWESNGQPENNYKTTPPVLDSDGSFFLYSKLTVDKSRWQQGNVFSCSVMHEALHNHYTQKSLSLSPGK
light: not shown
B1: the Kd was 44.7 nM in assay [1] and 729 nM in assay [2].
